Experiment [1] has as its target T1, GalacTag6_GBSFerritinLMG14747.
T1 construct: Self-assembled ferritin nanoparticle displaying GalacTag6; also called GalacTag6 + Ferritin NP Subunit: LMG_14747
T1 chain: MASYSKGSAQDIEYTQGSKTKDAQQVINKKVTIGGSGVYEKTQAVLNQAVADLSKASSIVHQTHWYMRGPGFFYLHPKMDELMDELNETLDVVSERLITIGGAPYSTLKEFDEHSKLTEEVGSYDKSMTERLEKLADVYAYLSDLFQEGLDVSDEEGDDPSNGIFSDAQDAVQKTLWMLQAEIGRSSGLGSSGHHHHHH
In words: SDS-PAGE and HPLC-SEC (FIG. 4).

Experiment [2] addresses T2, GalacTag7_fHbp (Neisseria meningitidis serogroup B / …, UniProt E6MV22 32-274).
T2 construct: Fusion of a GBS BP-2a tag peptide with N. meningitidis fHbp variant 1.1
T2 sequence: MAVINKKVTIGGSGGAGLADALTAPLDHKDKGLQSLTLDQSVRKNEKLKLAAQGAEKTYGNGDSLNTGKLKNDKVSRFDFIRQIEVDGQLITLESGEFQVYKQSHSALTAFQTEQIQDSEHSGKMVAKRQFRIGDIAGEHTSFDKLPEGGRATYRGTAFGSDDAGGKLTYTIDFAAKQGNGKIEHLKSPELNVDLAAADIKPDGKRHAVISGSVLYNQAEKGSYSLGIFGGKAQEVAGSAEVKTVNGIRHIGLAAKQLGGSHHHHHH
In words: mixed in vitro at room temperature ~16 h, SDS-PAGE.
Experimental: (§1) Each GalacDock/GalacTag pair was mixed in vitro at a 1:1 molar ratio at room temperature for approximately 16 hours, and samples were then subjected to SDS-PAGE electrophoresis.

Experiment [3] addresses T3, GalacTag6_GBSFerritinDK-PW-092+N-terminal helix.
T3 construct: Self-assembled ferritin nanoparticle displaying GalacTag6; also called GalacTag6_GBSFerritinDK-PW-092+ helix; GalacTag6 + GBS ferritin NP subunit from DK-092-PW w/N-terminal helix
T3 chain: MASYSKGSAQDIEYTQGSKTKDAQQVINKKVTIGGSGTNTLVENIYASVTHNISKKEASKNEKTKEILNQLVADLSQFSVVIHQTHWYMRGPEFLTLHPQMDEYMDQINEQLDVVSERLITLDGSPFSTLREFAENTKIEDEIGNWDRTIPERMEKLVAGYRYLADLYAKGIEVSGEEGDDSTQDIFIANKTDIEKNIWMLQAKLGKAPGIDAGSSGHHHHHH
The experiment can be described thus: 1:1 mix with the nanoparticle, room temperature ~16 h, SDS-PAGE and HPLC-SEC (FIG. 6).

For experiment [4], the target named is T4, GalacTag6_fHbp.
T4 construct: Fusion of a GBS BP-2a tag peptide with N. meningitidis fHbp variant 1.1; also called GalacTag6_ffibp; wt GalacTag
T4 chain: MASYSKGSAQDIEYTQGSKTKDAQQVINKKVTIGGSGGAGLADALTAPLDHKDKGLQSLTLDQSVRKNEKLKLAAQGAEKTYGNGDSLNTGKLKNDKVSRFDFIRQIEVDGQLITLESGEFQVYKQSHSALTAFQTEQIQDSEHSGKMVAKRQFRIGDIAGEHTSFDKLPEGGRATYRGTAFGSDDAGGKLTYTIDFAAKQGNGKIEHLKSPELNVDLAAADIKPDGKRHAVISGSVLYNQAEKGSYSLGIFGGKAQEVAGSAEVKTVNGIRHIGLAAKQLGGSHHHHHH
The experiment can be described thus: 1:1 molar mix, room temperature ~16 h, SDS-PAGE.
Experimental: as §1

Experiment [5] has as its target T5, GalacTag6_GBSFerritinDK-PW-092.
T5 construct: also called GalacTag6 + GBS ferritin NP subunit from DK-092-PW
T5 chain: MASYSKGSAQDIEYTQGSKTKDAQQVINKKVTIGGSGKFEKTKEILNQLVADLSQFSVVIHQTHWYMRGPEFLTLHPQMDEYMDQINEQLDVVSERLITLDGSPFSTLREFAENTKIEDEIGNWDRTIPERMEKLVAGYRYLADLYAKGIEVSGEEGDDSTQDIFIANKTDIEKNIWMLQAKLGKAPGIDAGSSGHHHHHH
In words: 1:1 mix with the nanoparticle, room temperature, SDS-PAGE and HPLC-SEC (FIGS. 5A, 5B).

Experiment [6] addresses T6, GalacTag6_fHbp (N636A).
T6 construct: also called variant GalacTag6_fHbp
T6 chain: T4 chain with N28A
The experiment can be described thus: mixed in vitro at room temperature ~16 h, SDS-PAGE (FIG. 3A).
Experimental: (§2) Using these variant GalacDock6 and GalacTag6_fHbp polypeptides, pairs as shown in Table 3 were mixed in vitro at a 1:1 molar ratio at room temperature for approximately 16 hours, and samples were then subjected to SDS-PAGE electrophoresis.

The target in experiment [7] is T4, GalacTag6_fHbp. The experiment is described as above.
Experimental: as §2
The target of experiment [8] is T7, GalacTag5_fHbp (Neisseria meningitidis serogroup B / …, UniProt E6MV22 32-274).
T7 construct: Fusion of a GBS BP1 tag peptide with N. meningitidis fHbp variant 1.1
T7 sequence: T2 sequence with V3D, I4T, N5I, K7N, V8N, T9K, I10R
In words: mixed in vitro at room temperature ~16 h, SDS-PAGE.
Experimental: as §1

Positions count from the first letter of the chain named. Names may count otherwise.

B1: GalacDock6 with MHHHHHHS leader (designed binder)
chain: MHHHHHHSNTETKPQVDKNFADKELDYANNKKDKGTVSASVGDVKKYHVGTKILKGSDYKKLIWTDSMTKGLTFNNDIAVTLDGATLDATNYKLVADDQGFRLVLTDKGLEAVAKAAKTKDVEIKITYSATLNGSAVVEVLETNDVKLDYGNNPTIENEPKEGIPVDKKITVNKTWAVDGNEVNKADETVDAVFTLQVKDGDKWVNVDSAKATAATSFKHTFENLDNAKTYRVIERVSGYAPEYVSFVNGVVTIKNNKDSNEPTPINPSEPKVVTYGRKFVKTNKDGKERLAGATFLVKKDGKYLARKSGVATDAEKAAVDSTKSALDAAVKAYNDLTKEKQEGQDGKSALATVSEKQKAYNDAFVKANYSYEWVEDKNAKNVVKLISNDKGQFEITGLTEGQYSLEETQAPTGYAKLSGDVSFNVN
notes: It forms a covalent isopeptide bond with GalacTag6; also called GalacDoc6; GlacDock6
B1: the binding result in experiment [1] is recorded as “binds”; in experiment [2], “no binding (tested: 1:1 molar ratio)”; in experiment [3] it was “binds”; in experiment [4], “binds”; in experiment [5], “binds”; in experiment [6], “no binding (tested: 1:1 molar ratio)”.

B2: GalacDock6 variant K463A (designed binder)
chain: B1 chain with K282A
As for B2, the binding result in experiment [7] is on record as “no binding (tested: 1:1 molar ratio)”.

B3: GalacDock6 variant E589Q (designed binder)
chain: B1 chain with E408Q
Regarding B3, the binding result in experiment [7] was “no binding (tested: 1:1 molar ratio)”.

B4: GalacDock6 variant E589A (designed binder)
chain: B1 chain with E408A
B4: the binding result in experiment [7] is recorded as “no binding (tested: 1:1 molar ratio)”.

B5: GalacDock7 with MHHHHHHS leader (designed binder)
chain: MHHHHHHSNTETKPQVDKNFADKELDYANNKKDKGTVSASVGDVKKYHVGTKILKGSDYKKLIWTDSMTKGLTFNNDIAVTLDGATLDATNYKLVADDQGFRLVLTDKGLEAVAKAAKTKDVEIKITYSATLNGSAVVEVLETNDVKLDYGNNPTIENEPKEGIPVDKKITVNKTWAVDGNEVNKADETVDAVFTLQVKDGDKWVNVDSAKATAATSFKHTFENLDNAKTYRVIERVSGYAPEYVSFVNGVVTIKNNKDSNEPTPINPSEPKVVTYGRKFVKTNKDGKERLAGATFLVKKDGKYLARKSGVATDAEKAAVDSTKSALDAAVKAYNDLTKEKQEGQDGKSALATVSEKQKAYNDAFVKANYSYEWVEDKNAKNVVKLISNDKGQFEITGLTEGQYSLEETQAPTGYAKLSGDVSFNVNATSYSKGSAQDIEYTQGSKTKDA
With B5, the binding result in experiment [2] is “no binding (tested: 1:1 molar ratio)”.

B6: GalacDock5 with MHHHHHHS leader (designed binder)
chain: MHHHHHHSNVVTDEPKTDKDVKKLGQDDAGYTIGEEFKWFLKSTIPANLGDYEKFEITDKFADGLTYKSVGKIKIGSKTLNRDEHYTIDEPTVDNQNTLKITFKPEKFKEIAELLKGMTLVKNQDALDKATANTDDAAFLEIPVASTINEKAVLGKAIENTFELQYDHTPDKADNPKPSNPPRKPEVHTGGKRFVKKDSTETQTLGGAEFDLLASDGTAVKWTDALIKANTNKNYIAGEAVTGQPIKLKSHTDGTFEIKGLAYAVDANAEGTAVTYKLKETKAPEGYVIPDKEIEFTVSQTSYNTKPTDITVDSAD
notes: Expressed in E. coli and purified on a HisTrap HP column
Take B6: the binding result in experiment [8] is given as “no binding (tested: 1:1 molar ratio)”.

Values taken from patent publication US20230250142A1 (GlaxoSmithKline, published 2023).
